Values joined by “and” are separate entries in the source; they are usually repeats but may differ in a detail not shown here. Identical values can stand only once.
Assays:
Settings in all cases: both partners purified
[1] = target: T1, GB1-SF1 Pro CD (residues 539-639) (UniProt Q15637 539-639); test: ITC; MicroCal PEAQ-ITC, 25 °C, 20 mM sodium phosphate pH 6.5, 100 mM NaCl; GB1-tagged SF1/SF3A1 constructs in the syringe, WW12 in the cell (N sites <1: more than one WW tandem on one construct); one-site model; apparent
T1 construct: SF1 (splicing factor 1) residues 539-639; pET24 vector with 6xHis, GB1 and TEV site as N-terminal cassette, not cleaved; source: E. coli BL21(DE3), purified (Ni-NTA, SEC); not shown: GB1, N-terminal, kept
T1 sequence (looked up): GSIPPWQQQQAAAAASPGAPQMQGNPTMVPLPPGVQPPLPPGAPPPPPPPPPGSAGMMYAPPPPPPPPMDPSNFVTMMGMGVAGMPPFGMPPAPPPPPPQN

[2] = target: T2, GB1-SF1 Pro BCD (residues 468-639) (UniProt Q15637 468-639); test: as above
T2 construct: SF1 (splicing factor 1) residues 468-639; pET24 vector with 6xHis, GB1 and TEV site as N-terminal cassette, not cleaved; source: E. coli BL21(DE3), purified (Ni-NTA, SEC); not shown: GB1, N-terminal, kept
T2 sequence (looked up): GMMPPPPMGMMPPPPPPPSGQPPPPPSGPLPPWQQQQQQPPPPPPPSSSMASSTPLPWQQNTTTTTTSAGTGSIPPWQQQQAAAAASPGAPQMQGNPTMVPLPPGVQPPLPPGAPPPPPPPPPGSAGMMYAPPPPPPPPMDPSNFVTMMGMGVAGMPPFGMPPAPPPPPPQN

[3] = target: T3, GB1-SF3A1 C-ter Pro (residues 552-683) (UniProt Q15459 552-683); test: as above
T3 construct: pET24 vector with 6xHis, GB1 and TEV site as N-terminal cassette, not cleaved; source: E. coli BL21(DE3), purified (Ni-NTA, SEC); not shown: GB1, N-terminal, kept
T3 sequence (looked up): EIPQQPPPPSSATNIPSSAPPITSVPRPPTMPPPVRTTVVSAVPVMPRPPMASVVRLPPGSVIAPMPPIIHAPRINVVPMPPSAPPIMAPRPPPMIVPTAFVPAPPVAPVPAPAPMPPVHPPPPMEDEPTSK

[4] = target: T4, GB1-SF1 Pro BC (residues 468-594) (UniProt Q15637 468-594); test: as above
T4 construct: SF1 (splicing factor 1) residues 468-594; pET24 vector with 6xHis, GB1 and TEV site as N-terminal cassette, not cleaved; source: E. coli BL21(DE3), purified (Ni-NTA, SEC); not shown: GB1, N-terminal, kept
T4 sequence (looked up): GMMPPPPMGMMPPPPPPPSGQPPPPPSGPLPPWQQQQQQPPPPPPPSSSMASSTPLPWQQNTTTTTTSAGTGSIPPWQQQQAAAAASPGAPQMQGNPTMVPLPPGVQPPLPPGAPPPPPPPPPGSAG

[5] = target: T5, GB1-SF1 Pro ABCD (residues 410-639) (UniProt Q15637 410-639); test: as above
T5 construct: SF1 (splicing factor 1) residues 410-639, the complete proline-rich C-terminal region; pET24 vector with 6xHis, GB1 and TEV site as N-terminal cassette, not cleaved; also called complete C-terminal region of SF1; source: E. coli BL21(DE3), purified (Ni-NTA, SEC); not shown: GB1, N-terminal, kept
T5 sequence (looked up): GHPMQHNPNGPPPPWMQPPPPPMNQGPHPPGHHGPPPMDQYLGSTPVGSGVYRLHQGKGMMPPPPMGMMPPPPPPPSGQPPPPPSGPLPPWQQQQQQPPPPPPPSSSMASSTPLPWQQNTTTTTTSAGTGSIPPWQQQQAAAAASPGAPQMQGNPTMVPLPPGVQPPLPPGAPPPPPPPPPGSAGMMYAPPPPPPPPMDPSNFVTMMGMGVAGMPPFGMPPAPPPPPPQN

[6] = target: T6, GB1-polyproline peptide P29; test: ITC; MicroCal PEAQ-ITC, 25 °C, 20 mM sodium phosphate pH 6.5, 100 mM NaCl; GB1-polyproline peptides in the cell, WW12 in the syringe (N sites >1: more than one WW tandem on one peptide); one-site model; apparent
T6 construct: common N-terminal residues after the TEV site (TEVsite-GAMSGS-peptide-SGSN); 29 consecutive prolines; common C-terminal residues; pET24 vector with 6xHis, GB1 and TEV site as N-terminal cassette, not cleaved; also called polyproline length 29; source: E. coli BL21(DE3), purified (Ni-NTA, SEC); not shown: GB1, N-terminal, kept
T6 chain: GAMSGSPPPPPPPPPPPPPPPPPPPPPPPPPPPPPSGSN

[7] = target: T7, GB1-polyproline peptide P25; test: as above
T7 construct: common N-terminal residues after the TEV site (TEVsite-GAMSGS-peptide-SGSN); 25 consecutive prolines; common C-terminal residues; pET24 vector with 6xHis, GB1 and TEV site as N-terminal cassette, not cleaved; also called polyproline length 25; source: E. coli BL21(DE3), purified (Ni-NTA, SEC); not shown: GB1, N-terminal, kept
T7 chain: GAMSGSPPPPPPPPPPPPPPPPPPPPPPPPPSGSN

[8] = target: T8, GB1-polyproline peptide P22; test: as above
T8 construct: common N-terminal residues after the TEV site (TEVsite-GAMSGS-peptide-SGSN); 22 consecutive prolines; common C-terminal residues; pET24 vector with 6xHis, GB1 and TEV site as N-terminal cassette, not cleaved; also called polyproline length 22; source: E. coli BL21(DE3), purified (Ni-NTA, SEC); not shown: GB1, N-terminal, kept
T8 chain: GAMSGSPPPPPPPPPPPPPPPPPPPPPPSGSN

[9] = target: T9, PRPF40A N-ext-WW12 (residues 56-236) (human, UniProt O75400 56-236); test: ITC; MicroCal PEAQ-ITC, 25 °C, 20 mM sodium phosphate pH 6.5, 100 mM NaCl; PRPF40A constructs and GB1-tagged SF1 16-mer peptides; who was in the syringe is not stated for these panels (Fig. 2B, Fig. 5C); one-site model
T9 construct: PRPF40A isoform 1, residues 56-236: N-terminal proline-rich region and both WW domains; pETM11 vector; also called Nter Ext WW12; N-terminal extended WW12 construct; source: E. coli BL21(DE3), purified (Ni-NTA, TEV cleavage, reverse Ni-NTA, SEC); not shown: His6, N-terminal, cleaved
T9 sequence (looked up): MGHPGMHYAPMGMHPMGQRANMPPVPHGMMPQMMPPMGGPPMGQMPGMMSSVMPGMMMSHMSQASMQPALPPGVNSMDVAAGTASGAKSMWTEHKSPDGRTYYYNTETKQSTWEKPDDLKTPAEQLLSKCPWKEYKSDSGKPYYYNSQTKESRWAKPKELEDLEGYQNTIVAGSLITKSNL

[10] = target: T10, PRPF40A N-ext-WW12 mutant (PPVP and PALPP motifs changed to alanine residues) (human, UniProt O75400 56-236, 78-81 PPVP to AAAA | 123-127 PALPP to AAAAA); test: as above
T10 construct: PRPF40A isoform 1, residues 56-236, with the two motifs PPVP (78-81) and PALPP (123-127) changed to alanine residues; made by site-directed mutagenesis of N-ext-WW12; also called Nter Ext WW12 MUTANT; mutated version of the N-extWW12; source: E. coli BL21(DE3), purified (Ni-NTA, TEV cleavage, reverse Ni-NTA, SEC); not shown: His6, N-terminal, cleaved
T10 sequence (looked up): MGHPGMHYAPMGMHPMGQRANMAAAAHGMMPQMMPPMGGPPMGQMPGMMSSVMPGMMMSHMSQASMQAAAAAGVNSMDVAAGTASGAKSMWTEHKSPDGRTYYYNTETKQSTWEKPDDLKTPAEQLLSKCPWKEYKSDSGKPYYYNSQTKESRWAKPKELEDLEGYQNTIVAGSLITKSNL

Binder | Kd [1] | Kd [2] | Kd [3] | Kd [4] | Kd [5] | stoichiometry N [6] | stoichiometry N [7] | stoichiometry N [8] | Kd [9] | Kd [10]
PRPF40A WW12 (tandem WW domains, residues 141-236) (domain or fragment, human, UniProt O75400 141-236, looked up, pETM11 vector (NcoI/KpnI); also called PRPF40A WW tandem; isolated WW domains; source: E. coli BL21(DE3), purified (Ni-NTA, TEV cleavage, reverse Ni-NTA, SEC); not shown: His6, N-terminal, cleaved) GAKSMWTEHKSPDGRTYYYNTETKQSTWEKPDDLKTPAEQLLSKCPWKEYKSDSGKPYYYNSQTKESRWAKPKELEDLEGYQNTIVAGSLITKSNL | 2.83 µM and 4.32 µM and 4.26 µM and 3.8 µM | 2.93 µM and 4.36 µM and 3.65 µM | 23.8 µM and 14.8 µM and 19.3 µM | 3.63 µM and 7.76 µM and 9.11 µM and 6.83 µM | 5.41 µM and 4.4 µM and 4.91 µM | 2.38 and 2.56 and 2.47 | 2.21 and 2.39 and 2.3 | 1.41 and 1.37 and 1.39 | – | –
GAMSGSPPLPPGAPPPPPPPPPSGSN (common N-terminal residues after the TEV site (TEVsite-GAMSGS-peptide-SGSN); SF1 (splicing factor 1) residues 575-590; common C-terminal residues; pET24 vector with 6xHis, GB1 and TEV site as N-terminal cassette, not cleaved for ITC; also called SF1_(WWbs); SF1 WWbs; source: E. coli BL21(DE3), purified (Ni-NTA, SEC); not shown: GB1, N-terminal, kept) [GB1-SF1(575-590) 16-mer peptide, SF1 PRPF40A WW binding site] | – | – | – | – | – | – | – | – | 9.19 µM and 8.22 µM and 8.71 µM | 2.44 µM and 1.98 µM and 2.21 µM

From PMC11079029, “Intramolecular autoinhibition regulates the selectivity of PRPF40A tandem WW domains for proline-rich motifs” (Nature Communications, 2024)
